Source: the supplement of paper PMC10065799, “High-throughput profiling of sequence recognition by tyrosine kinases and SH2 domains using bacterial peptide display” (eLife, 2023)

Biological target: FGFR3 (UniProt P22607)
Experiment: phosphorylation enrichment, bacterial display (enrichment ratio); higher = better substrate or ligand; peptides without Tyr show the background
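Note: 11-residue human phosphosite peptides and single-mutation variants displayed on the E. coli surface, counted by deep sequencing, each peptide's frequency after selection divided by its frequency in the unselected input library; frequency after pTyr selection over input frequency; kinase dosed for 20-30% of maximal phosphorylation in three min.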

Sequence of FGFR3 (P22607 whole entry, looked up): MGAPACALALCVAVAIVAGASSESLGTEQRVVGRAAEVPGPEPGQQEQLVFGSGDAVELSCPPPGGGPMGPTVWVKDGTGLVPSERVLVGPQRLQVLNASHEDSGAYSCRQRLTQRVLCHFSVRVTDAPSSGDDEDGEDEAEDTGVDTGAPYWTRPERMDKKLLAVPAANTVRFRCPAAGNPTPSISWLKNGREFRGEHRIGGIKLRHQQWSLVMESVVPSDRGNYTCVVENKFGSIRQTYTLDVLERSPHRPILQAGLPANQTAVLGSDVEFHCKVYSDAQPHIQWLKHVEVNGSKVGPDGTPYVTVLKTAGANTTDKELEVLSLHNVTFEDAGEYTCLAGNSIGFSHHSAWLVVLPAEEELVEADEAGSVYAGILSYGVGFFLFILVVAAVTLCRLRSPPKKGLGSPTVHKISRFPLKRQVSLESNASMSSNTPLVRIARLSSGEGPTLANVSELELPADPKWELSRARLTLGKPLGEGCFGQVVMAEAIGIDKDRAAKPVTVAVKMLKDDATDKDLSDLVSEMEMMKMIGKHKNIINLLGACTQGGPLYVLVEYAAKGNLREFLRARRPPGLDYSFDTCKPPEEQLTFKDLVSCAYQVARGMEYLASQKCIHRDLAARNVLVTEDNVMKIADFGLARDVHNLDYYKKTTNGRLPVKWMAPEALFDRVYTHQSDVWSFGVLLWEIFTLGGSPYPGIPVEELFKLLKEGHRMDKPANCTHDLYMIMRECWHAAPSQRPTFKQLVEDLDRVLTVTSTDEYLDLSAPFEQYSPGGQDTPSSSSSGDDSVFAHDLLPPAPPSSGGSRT

In order of falling phosphorylation enrichment:
1. TVQVAYYTMMM [SPATA17_Y83]  9.18
2. RAVLLYEYVGK [NATD1_Y45]  3.99
3. STSFDYCRVPM [BST2_Y8_YF]  3.97
4. RASDYYSQQMA [GBP6_Y334_A331S]  1.89
5. PNAYIYVVQLP [L1CAM_Y420_A415P]  1.61
6. LNPDGYKKAYE [CPXM2_Y427_E428K]  1.46
7. ISSLLYELLEE [TRPC6_Y896_R895L]  1.35
8. RMGNLYDIDEN [GRIN2A_Y1246_D1251N]  1.22
9. LNPFIYSLRNC [OR1A2_Y288_W293C]  1.2
10. RTTIHYNFMCN [TP53_Y234_C229R_YF]  1.11
11. ANAYIYDVQLP [L1CAM_Y420_V421D]  0.89
12. LLINKYGLSDH [SCP2_Y151_A155D]  0.849
13. RFLRGYRQHAY [HLA-A_Y137_D140H]  0.849
14. TFEYRYLEDRD [CNOT3_Y746]  0.848
15. PQAVRYIFTID [DCX_Y103_G100A_YF]  0.841
16. DFCDLYGGEKF [PTPN11_Y66_Y63C_YF]  0.832
17. VVVTKYCKEEL [ATP7B_Y1078_A1074V]  0.824
18. FGMQLYQNFMH [GRB14_Y347_YF]  0.772
19. RREWFYEVIIA [BACE1_Y260_V265A_YF]  0.764
20. QSSALYEDRYL [ASS1_Y83]  0.74
21. TEQMAYCPIQC [SHC4_Y403]  0.737
22. GIYSGYDDAWD [POLR1C_Y36_N32I]  0.647
23. DEENFYQGSME [ASCC1_Y36_D34N]  0.647
24. FHLLPYTVRAM [PARS2_Y93_YF]  0.551
25. VDSLRYIFPKL [EIF2B3_Y92_A87V_YF]  0.51
26. EKPAKYDDIKK [GAPDH_Y255]  0.503
27. IKNSGYISQFL [EIF2AK3_Y585_R588Q_YF]  0.474
28. GGYNNYGYGSD [HNRNPH3_Y159_N163S]  0.467
29. AGQERYRAITS [RAB11B_Y73]  0.466
30. KRYRIYHLAIS [BRCA2_Y3009_T3013I]  0.464
31. AGTIPYHAHLD [ASS1_Y291_L290P]  0.435
32. KPGLIYNKVNP [SPRED3_Y72_V71I]  0.429
33. RPGSGYTNIMR [PKLR_Y564]  0.415

Biological target: EPHB1 (UniProt P54762)
Experiment: as above

Sequence of EPHB1 (P54762 whole entry, looked up): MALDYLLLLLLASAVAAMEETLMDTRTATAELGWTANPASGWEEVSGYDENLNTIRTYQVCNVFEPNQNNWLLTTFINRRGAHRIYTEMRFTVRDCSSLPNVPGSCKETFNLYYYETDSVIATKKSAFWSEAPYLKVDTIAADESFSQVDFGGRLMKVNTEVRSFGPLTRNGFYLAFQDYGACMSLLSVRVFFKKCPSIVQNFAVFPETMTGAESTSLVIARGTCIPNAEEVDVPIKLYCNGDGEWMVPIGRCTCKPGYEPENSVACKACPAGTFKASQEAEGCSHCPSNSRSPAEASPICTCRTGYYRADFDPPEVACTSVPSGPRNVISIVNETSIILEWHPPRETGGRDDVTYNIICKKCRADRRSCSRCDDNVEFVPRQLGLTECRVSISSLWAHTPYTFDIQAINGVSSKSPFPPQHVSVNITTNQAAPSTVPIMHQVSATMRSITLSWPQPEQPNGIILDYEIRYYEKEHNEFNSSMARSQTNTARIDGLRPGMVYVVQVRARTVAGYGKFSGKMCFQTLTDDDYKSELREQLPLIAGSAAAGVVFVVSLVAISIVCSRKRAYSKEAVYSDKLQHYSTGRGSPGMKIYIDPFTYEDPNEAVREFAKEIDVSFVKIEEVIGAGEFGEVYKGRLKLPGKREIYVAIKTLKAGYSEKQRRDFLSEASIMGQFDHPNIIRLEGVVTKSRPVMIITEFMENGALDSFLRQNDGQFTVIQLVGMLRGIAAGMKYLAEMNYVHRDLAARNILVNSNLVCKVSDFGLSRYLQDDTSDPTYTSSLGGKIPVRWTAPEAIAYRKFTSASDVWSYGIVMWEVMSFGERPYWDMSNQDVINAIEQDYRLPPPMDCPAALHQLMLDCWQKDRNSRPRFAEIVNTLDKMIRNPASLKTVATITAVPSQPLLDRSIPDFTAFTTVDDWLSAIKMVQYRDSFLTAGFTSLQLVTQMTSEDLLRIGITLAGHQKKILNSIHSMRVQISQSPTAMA

In order of rising phosphorylation enrichment:
1. RPGSGYTNIMR [PKLR_Y564]  0.345
2. KRYRIYHLAIS [BRCA2_Y3009_T3013I]  0.37
3. AGTIPYHAHLD [ASS1_Y291_L290P]  0.395
4. AGQERYRAITS [RAB11B_Y73]  0.413
5. IKNSGYISQFL [EIF2AK3_Y585_R588Q_YF]  0.434
6. TEQMAYCPIQC [SHC4_Y403]  0.434
7. EKPAKYDDIKK [GAPDH_Y255]  0.441
8. VDSLRYIFPKL [EIF2B3_Y92_A87V_YF]  0.449
9. KPGLIYNKVNP [SPRED3_Y72_V71I]  0.485
10. DFCDLYGGEKF [PTPN11_Y66_Y63C_YF]  0.511
11. RREWFYEVIIA [BACE1_Y260_V265A_YF]  0.515
12. FHLLPYTVRAM [PARS2_Y93_YF]  0.581
13. DEENFYQGSME [ASCC1_Y36_D34N]  0.588
14. LNPDGYKKAYE [CPXM2_Y427_E428K]  0.605
15. TFEYRYLEDRD [CNOT3_Y746]  0.623
16. VVVTKYCKEEL [ATP7B_Y1078_A1074V]  0.639
17. LLINKYGLSDH [SCP2_Y151_A155D]  0.646
18. RFLRGYRQHAY [HLA-A_Y137_D140H]  0.787
19. LNPFIYSLRNC [OR1A2_Y288_W293C]  0.826
20. RTTIHYNFMCN [TP53_Y234_C229R_YF]  0.908
21. RASDYYSQQMA [GBP6_Y334_A331S]  0.966
22. PNAYIYVVQLP [L1CAM_Y420_A415P]  1.08
23. RMGNLYDIDEN [GRIN2A_Y1246_D1251N]  1.16
24. PQAVRYIFTID [DCX_Y103_G100A_YF]  1.29
25. GGYNNYGYGSD [HNRNPH3_Y159_N163S]  1.48
26. GIYSGYDDAWD [POLR1C_Y36_N32I]  2.36
27. QSSALYEDRYL [ASS1_Y83]  3.12
28. ANAYIYDVQLP [L1CAM_Y420_V421D]  3.15
29. TVQVAYYTMMM [SPATA17_Y83]  3.4
30. FGMQLYQNFMH [GRB14_Y347_YF]  3.53
31. ISSLLYELLEE [TRPC6_Y896_R895L]  7.24
32. STSFDYCRVPM [BST2_Y8_YF]  9.03
33. RAVLLYEYVGK [NATD1_Y45]  28.2

Biological target: Fes (UniProt P07332)
Experiment: as above

Sequence of Fes (P07332 whole entry, looked up): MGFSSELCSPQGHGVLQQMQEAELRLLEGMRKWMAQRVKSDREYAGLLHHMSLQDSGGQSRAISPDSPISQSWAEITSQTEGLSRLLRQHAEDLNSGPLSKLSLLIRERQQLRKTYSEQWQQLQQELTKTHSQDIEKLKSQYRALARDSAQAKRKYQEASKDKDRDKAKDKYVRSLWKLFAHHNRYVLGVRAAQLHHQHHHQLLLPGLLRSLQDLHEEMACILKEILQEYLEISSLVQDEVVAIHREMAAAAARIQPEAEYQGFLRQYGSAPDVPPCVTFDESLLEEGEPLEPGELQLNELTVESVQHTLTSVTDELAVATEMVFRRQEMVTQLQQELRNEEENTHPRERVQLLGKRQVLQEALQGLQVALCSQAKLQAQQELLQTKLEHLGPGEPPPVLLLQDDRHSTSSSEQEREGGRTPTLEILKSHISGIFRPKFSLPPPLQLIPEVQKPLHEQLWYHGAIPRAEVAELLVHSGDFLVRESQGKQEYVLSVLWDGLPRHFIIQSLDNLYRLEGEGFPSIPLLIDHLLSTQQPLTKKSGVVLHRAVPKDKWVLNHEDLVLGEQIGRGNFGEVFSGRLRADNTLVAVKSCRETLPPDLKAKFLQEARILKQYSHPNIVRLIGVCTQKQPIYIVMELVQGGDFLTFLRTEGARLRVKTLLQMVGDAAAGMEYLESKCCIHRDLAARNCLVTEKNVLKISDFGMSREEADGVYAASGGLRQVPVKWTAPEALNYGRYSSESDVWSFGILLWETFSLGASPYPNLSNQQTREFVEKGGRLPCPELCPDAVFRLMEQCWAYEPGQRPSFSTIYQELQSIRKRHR

In order of falling phosphorylation enrichment:
1. RAVLLYEYVGK [NATD1_Y45]  4.82
2. LNPFIYSLRNC [OR1A2_Y288_W293C]  2.72
3. RMGNLYDIDEN [GRIN2A_Y1246_D1251N]  2.16
4. ISSLLYELLEE [TRPC6_Y896_R895L]  1.94
5. TVQVAYYTMMM [SPATA17_Y83]  1.85
6. PNAYIYVVQLP [L1CAM_Y420_A415P]  1.76
7. PQAVRYIFTID [DCX_Y103_G100A_YF]  1.76
8. RTTIHYNFMCN [TP53_Y234_C229R_YF]  1.46
9. LLINKYGLSDH [SCP2_Y151_A155D]  1.45
10. VVVTKYCKEEL [ATP7B_Y1078_A1074V]  1.37
11. DEENFYQGSME [ASCC1_Y36_D34N]  1.36
12. TFEYRYLEDRD [CNOT3_Y746]  1.35
13. DFCDLYGGEKF [PTPN11_Y66_Y63C_YF]  1.33
14. STSFDYCRVPM [BST2_Y8_YF]  1.32
15. LNPDGYKKAYE [CPXM2_Y427_E428K]  1.14
16. QSSALYEDRYL [ASS1_Y83]  1.12
17. GIYSGYDDAWD [POLR1C_Y36_N32I]  1.09
18. ANAYIYDVQLP [L1CAM_Y420_V421D]  1.05
19. FGMQLYQNFMH [GRB14_Y347_YF]  1.04
20. RFLRGYRQHAY [HLA-A_Y137_D140H]  1.04
21. TEQMAYCPIQC [SHC4_Y403]  1.02
22. EKPAKYDDIKK [GAPDH_Y255]  1.01
23. KPGLIYNKVNP [SPRED3_Y72_V71I]  1
24. FHLLPYTVRAM [PARS2_Y93_YF]  0.971
25. VDSLRYIFPKL [EIF2B3_Y92_A87V_YF]  0.9
26. RASDYYSQQMA [GBP6_Y334_A331S]  0.744
27. RREWFYEVIIA [BACE1_Y260_V265A_YF]  0.733
28. GGYNNYGYGSD [HNRNPH3_Y159_N163S]  0.697
29. KRYRIYHLAIS [BRCA2_Y3009_T3013I]  0.68
30. AGTIPYHAHLD [ASS1_Y291_L290P]  0.645
31. AGQERYRAITS [RAB11B_Y73]  0.627
32. RPGSGYTNIMR [PKLR_Y564]  0.586
33. IKNSGYISQFL [EIF2AK3_Y585_R588Q_YF]  0.579

System: Fer (mouse)
Experiment: as above

In order of rising phosphorylation enrichment:
1. AGTIPYHAHLD [ASS1_Y291_L290P]  0.357
2. IKNSGYISQFL [EIF2AK3_Y585_R588Q_YF]  0.377
3. EKPAKYDDIKK [GAPDH_Y255]  0.392
4. RASDYYSQQMA [GBP6_Y334_A331S]  0.402
5. KRYRIYHLAIS [BRCA2_Y3009_T3013I]  0.406
6. GGYNNYGYGSD [HNRNPH3_Y159_N163S]  0.421
7. RPGSGYTNIMR [PKLR_Y564]  0.429
8. VDSLRYIFPKL [EIF2B3_Y92_A87V_YF]  0.463
9. AGQERYRAITS [RAB11B_Y73]  0.469
10. PNAYIYVVQLP [L1CAM_Y420_A415P]  0.47
11. TFEYRYLEDRD [CNOT3_Y746]  0.472
12. FHLLPYTVRAM [PARS2_Y93_YF]  0.514
13. PQAVRYIFTID [DCX_Y103_G100A_YF]  0.524
14. VVVTKYCKEEL [ATP7B_Y1078_A1074V]  0.554
15. LNPDGYKKAYE [CPXM2_Y427_E428K]  0.619
16. DEENFYQGSME [ASCC1_Y36_D34N]  0.624
17. RREWFYEVIIA [BACE1_Y260_V265A_YF]  0.66
18. RTTIHYNFMCN [TP53_Y234_C229R_YF]  0.668
19. DFCDLYGGEKF [PTPN11_Y66_Y63C_YF]  0.672
20. LLINKYGLSDH [SCP2_Y151_A155D]  0.709
21. KPGLIYNKVNP [SPRED3_Y72_V71I]  0.803
22. STSFDYCRVPM [BST2_Y8_YF]  0.827
23. RMGNLYDIDEN [GRIN2A_Y1246_D1251N]  0.864
24. LNPFIYSLRNC [OR1A2_Y288_W293C]  1
25. RFLRGYRQHAY [HLA-A_Y137_D140H]  1.02
26. TEQMAYCPIQC [SHC4_Y403]  1.14
27. GIYSGYDDAWD [POLR1C_Y36_N32I]  1.46
28. ANAYIYDVQLP [L1CAM_Y420_V421D]  1.72
29. TVQVAYYTMMM [SPATA17_Y83]  3.74
30. FGMQLYQNFMH [GRB14_Y347_YF]  5.17
31. ISSLLYELLEE [TRPC6_Y896_R895L]  7.37
32. QSSALYEDRYL [ASS1_Y83]  7.79
33. RAVLLYEYVGK [NATD1_Y45]  19.4
